US20060142193

Columns and labels:
TAT-SRF = TAT-SRF (UniProt P11831)
TAT-SRF245A/254A = TAT-SRF245A/254A (UniProt P11831)
[1] = target: T1, serum response factor (SRF) (UniProt P11831)
T1 sequence: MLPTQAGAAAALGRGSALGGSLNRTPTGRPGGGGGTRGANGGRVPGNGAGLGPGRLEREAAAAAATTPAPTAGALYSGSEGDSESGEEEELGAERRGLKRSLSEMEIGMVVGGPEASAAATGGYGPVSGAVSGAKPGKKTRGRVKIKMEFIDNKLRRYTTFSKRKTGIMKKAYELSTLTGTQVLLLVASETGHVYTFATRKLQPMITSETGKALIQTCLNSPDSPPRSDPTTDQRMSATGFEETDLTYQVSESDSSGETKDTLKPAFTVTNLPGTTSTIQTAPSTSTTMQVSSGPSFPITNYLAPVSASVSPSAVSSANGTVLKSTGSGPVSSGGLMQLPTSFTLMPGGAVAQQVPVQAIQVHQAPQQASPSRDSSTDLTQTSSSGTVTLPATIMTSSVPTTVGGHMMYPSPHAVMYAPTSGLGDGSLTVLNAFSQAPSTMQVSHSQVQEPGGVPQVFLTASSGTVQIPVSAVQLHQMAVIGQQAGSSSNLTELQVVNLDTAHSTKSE

[2] = target: endogenous ROCK1 of neonatal rat cardiomyocytes (UniProt Q63644)
Sequence of endogenous ROCK1 of neonatal rat cardiomyocytes (Q63644 2-1369): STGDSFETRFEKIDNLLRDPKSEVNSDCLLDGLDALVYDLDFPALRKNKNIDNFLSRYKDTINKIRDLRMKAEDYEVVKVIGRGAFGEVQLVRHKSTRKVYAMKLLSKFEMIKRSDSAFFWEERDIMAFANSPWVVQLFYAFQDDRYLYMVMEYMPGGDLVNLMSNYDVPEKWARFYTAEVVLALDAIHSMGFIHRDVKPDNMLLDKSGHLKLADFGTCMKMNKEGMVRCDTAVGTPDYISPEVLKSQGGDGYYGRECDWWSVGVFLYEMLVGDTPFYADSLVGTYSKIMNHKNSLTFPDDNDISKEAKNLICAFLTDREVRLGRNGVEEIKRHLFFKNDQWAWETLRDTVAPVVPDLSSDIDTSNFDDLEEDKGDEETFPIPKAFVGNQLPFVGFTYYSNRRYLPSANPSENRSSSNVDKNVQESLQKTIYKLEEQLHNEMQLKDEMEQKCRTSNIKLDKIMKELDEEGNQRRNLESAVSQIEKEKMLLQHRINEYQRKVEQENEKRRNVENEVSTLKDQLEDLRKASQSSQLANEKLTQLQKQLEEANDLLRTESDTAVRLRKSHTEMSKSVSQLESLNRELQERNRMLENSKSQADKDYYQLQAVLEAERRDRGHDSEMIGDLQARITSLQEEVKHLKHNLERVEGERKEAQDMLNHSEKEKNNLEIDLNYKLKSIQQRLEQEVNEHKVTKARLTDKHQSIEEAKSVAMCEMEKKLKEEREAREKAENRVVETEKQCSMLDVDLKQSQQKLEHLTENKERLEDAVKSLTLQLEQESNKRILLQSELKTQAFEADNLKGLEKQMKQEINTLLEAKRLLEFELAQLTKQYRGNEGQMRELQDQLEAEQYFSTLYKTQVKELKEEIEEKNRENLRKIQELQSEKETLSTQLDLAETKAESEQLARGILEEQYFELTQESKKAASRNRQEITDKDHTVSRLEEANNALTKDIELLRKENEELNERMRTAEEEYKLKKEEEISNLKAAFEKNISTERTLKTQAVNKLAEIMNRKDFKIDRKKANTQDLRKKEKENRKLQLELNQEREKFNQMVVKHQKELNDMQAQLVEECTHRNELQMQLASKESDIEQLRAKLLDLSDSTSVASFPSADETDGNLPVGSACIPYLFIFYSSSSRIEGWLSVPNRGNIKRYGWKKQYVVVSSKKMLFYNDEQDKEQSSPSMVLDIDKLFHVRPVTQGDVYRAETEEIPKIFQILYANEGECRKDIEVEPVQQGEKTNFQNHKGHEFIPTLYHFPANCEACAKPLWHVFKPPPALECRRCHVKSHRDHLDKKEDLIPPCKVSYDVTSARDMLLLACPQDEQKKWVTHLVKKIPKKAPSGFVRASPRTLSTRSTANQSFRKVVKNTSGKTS

Row | Substance | in vitro cleavage by recombinant caspase 3 (TAT-SRF) | in vitro cleavage by recombinant caspase 3 (TAT-SRF245A/254A) | in vitro cleavage of SRF [1] | 130 kDa ROCK1 cleavage fragment by Western blot of infected cardiomyocytes [2]
1 | active caspase 3 (recombinant caspase 3) | only TAT-SRF was cleaved by caspase 3 | SRF245A/254A mutant was resistant to caspase 3 cleavage | Activated caspase 3 is able to cleave SRF in vitro | 
2 | conditional caspase 3 (iCasp3) |  |  |  | The 130 kDa cleavage fragment of ROCK1 was detected in cardiomyocytes infected with Ad-G/iCasp3 and treated with CID
